We go through 6 molecules from patent US20140087995A1 (published 2014).

Numbered stars: 1 amine (or outer) side, 2 acyl side, 3 side chain; on linkers, the order of the positions; unused ones are H or OH. Bridge positions count the residues as written; N and C are the ends. Side chains are listed from the residue outwards. Ends that are not written are not given here. * marks the point of attachment. C20 diacid = O=C(O)CCCCCCCCCCCCCCCCCCC(=O)*; γGlu = O=C(O)[C@H](CCC(=O)[*:2])N[*:1]

Assay [1] addresses T1, human calcitonin receptor (human, UniProt P30988 25-474).
T1 construct: whole, on cells; Membranes of BHK cells stably transfected with the human calcitonin receptor (Assay VII); also called hCTR; hCT
T1 sequence (looked up): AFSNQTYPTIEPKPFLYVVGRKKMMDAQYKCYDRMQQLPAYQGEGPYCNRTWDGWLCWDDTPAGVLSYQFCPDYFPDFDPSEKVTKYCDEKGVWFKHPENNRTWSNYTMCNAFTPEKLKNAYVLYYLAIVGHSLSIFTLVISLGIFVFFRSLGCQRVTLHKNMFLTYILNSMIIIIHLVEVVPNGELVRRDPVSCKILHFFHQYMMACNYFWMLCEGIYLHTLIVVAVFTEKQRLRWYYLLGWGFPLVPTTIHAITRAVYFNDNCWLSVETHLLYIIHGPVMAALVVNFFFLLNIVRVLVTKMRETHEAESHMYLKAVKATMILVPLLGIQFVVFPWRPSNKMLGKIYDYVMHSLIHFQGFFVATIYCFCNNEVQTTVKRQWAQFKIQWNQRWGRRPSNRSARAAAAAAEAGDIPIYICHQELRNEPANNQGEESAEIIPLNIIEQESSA
The experiment in a line: ratio of IC50 at hCTR over IC50 at hAmylin-R (SPA competition assays). The method, boiled down:
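Competition binding by SPA uses membrane preparations (35 ng/μL final) in pH 7.4 Hepes buffer with 1 mM CaCl2 and 5 mM MgCl₂. Incubation lasts 120 min at 25° C, and IC₅₀ comes from one-site fitting.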

Assay [2] has as its target T1, human calcitonin receptor. The experiment in a line: SPA competition against 125I-calcitonin, membranes of BHK cells with human calcitonin receptor (Assay VII). In outline: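 BHK hCTR membranes 35 ng/μL + SPA beads 0.05 mg/well; buffer 50 mM Hepes pH 7.4, 1 mM CaCl2, 5 mM MgCl₂, 0.1% OA, 0.02% Tween20. 120 min, 25° C., shaking. Scintillation count; IC50 by one-site binding competition.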

Broadly, the IC50 is the concentration at which inhibition is half-maximal.

B1: N^ε1-[(4S)-4-carboxy-4-[[(4S)-4-carboxy-4-(19-carboxynonadecanoylamino)butanoyl]amino]butanoyl]-[Glu14,Arg17,Pro21,Pro27,Pro34,Glu35,Pro37]-h-amylin (peptide)
peptide: K([γGlu-γGlu-C20 diacid])CNTATCATQRLAEFLRHSSPNFGAIPSSTNVGPETP-NH2
modifications: disulfide 2-7; N-terminus assumed
SMILES: CC[C@H](C)[C@H](NC(=O)[C@H](C)NC(=O)CNC(=O)[C@H](Cc1ccccc1)NC(=O)[C@H](CC(N)=O)NC(=O)[C@@H]1CCCN1C(=O)[C@H](CO)NC(=O)[C@H](CO)NC(=O)[C@H](Cc1c[nH]cn1)NC(=O)[C@H](CCCNC(=N)N)NC(=O)[C@H](CC(C)C)NC(=O)[C@H](Cc1ccccc1)NC(=O)[C@H](CCC(=O)O)NC(=O)[C@H](C)NC(=O)[C@H](CC(C)C)NC(=O)[C@H](CCCNC(=N)N)NC(=O)[C@H](CCC(N)=O)NC(=O)[C@@H](NC(=O)[C@H](C)NC(=O)[C@@H]1CSSC[C@H](NC(=O)[C@@H](N)CCCCNC(=O)CC[C@H](NC(=O)CC[C@H](NC(=O)CCCCCCCCCCCCCCCCCCC(=O)O)C(=O)O)C(=O)O)C(=O)N[C@@H](CC(N)=O)C(=O)N[C@@H]([C@@H](C)O)C(=O)N[C@@H](C)C(=O)N[C@@H]([C@@H](C)O)C(=O)N1)[C@@H](C)O)C(=O)N1CCC[C@H]1C(=O)N[C@@H](CO)C(=O)N[C@@H](CO)C(=O)N[C@H](C(=O)N[C@@H](CC(N)=O)C(=O)N[C@H](C(=O)NCC(=O)N1CCC[C@H]1C(=O)N[C@@H](CCC(=O)O)C(=O)N[C@H](C(=O)N1CCC[C@H]1C(N)=O)[C@@H](C)O)C(C)C)[C@@H](C)O
On to B1, for which the “Ratio hCT/hAmylin binding” value in assay [1] came to 0.4. In assay [2], the IC50 was determined as 0.226 nM.

B2: N^ε1-[(4S)-4-carboxy-4-[[(4S)-4-carboxy-4-(19-carboxynonadecanoylamino)butanoyl]amino]butanoyl]-[Ser14,Arg17,Pro21,Pro27,Pro34,Glu35]-h-amylin (peptide)
peptide: K([γGlu-γGlu-C20 diacid])CNTATCATQRLASFLRHSSPNFGAIPSSTNVGPETY-NH2
modifications: disulfide 2-7; N-terminus assumed
SMILES: CC[C@H](C)[C@H](NC(=O)[C@H](C)NC(=O)CNC(=O)[C@H](Cc1ccccc1)NC(=O)[C@H](CC(N)=O)NC(=O)[C@@H]1CCCN1C(=O)[C@H](CO)NC(=O)[C@H](CO)NC(=O)[C@H](Cc1c[nH]cn1)NC(=O)[C@H](CCCNC(=N)N)NC(=O)[C@H](CC(C)C)NC(=O)[C@H](Cc1ccccc1)NC(=O)[C@H](CO)NC(=O)[C@H](C)NC(=O)[C@H](CC(C)C)NC(=O)[C@H](CCCNC(=N)N)NC(=O)[C@H](CCC(N)=O)NC(=O)[C@@H](NC(=O)[C@H](C)NC(=O)[C@@H]1CSSC[C@H](NC(=O)[C@@H](N)CCCCNC(=O)CC[C@H](NC(=O)CC[C@H](NC(=O)CCCCCCCCCCCCCCCCCCC(=O)O)C(=O)O)C(=O)O)C(=O)N[C@@H](CC(N)=O)C(=O)N[C@@H]([C@@H](C)O)C(=O)N[C@@H](C)C(=O)N[C@@H]([C@@H](C)O)C(=O)N1)[C@@H](C)O)C(=O)N1CCC[C@H]1C(=O)N[C@@H](CO)C(=O)N[C@@H](CO)C(=O)N[C@H](C(=O)N[C@@H](CC(N)=O)C(=O)N[C@H](C(=O)NCC(=O)N1CCC[C@H]1C(=O)N[C@@H](CCC(=O)O)C(=O)N[C@H](C(=O)N[C@@H](Cc1ccc(O)cc1)C(N)=O)[C@@H](C)O)C(C)C)[C@@H](C)O
notes: also called compound 120
As for B2, the “Ratio hCT/hAmylin binding” value in assay [1] came to 45.3. For the same molecule, the IC50 in assay [2] came to 3.44 nM.

B3: N^ε1-[(4S)-4-carboxy-4-[[(4S)-4-carboxy-4-(19-carboxynonadecanoylamino)butanoyl]amino]butanoyl]-[Glu14,Arg17,Pro23,Pro34,Glu35]-h-amylin (peptide)
peptide: K([γGlu-γGlu-C20 diacid])CNTATCATQRLAEFLRHSSNNPGAILSSTNVGPETY-NH2
modifications: disulfide 2-7; N-terminus assumed
SMILES: CC[C@H](C)[C@H](NC(=O)[C@H](C)NC(=O)CNC(=O)[C@@H]1CCCN1C(=O)[C@H](CC(N)=O)NC(=O)[C@H](CC(N)=O)NC(=O)[C@H](CO)NC(=O)[C@H](CO)NC(=O)[C@H](Cc1c[nH]cn1)NC(=O)[C@H](CCCNC(=N)N)NC(=O)[C@H](CC(C)C)NC(=O)[C@H](Cc1ccccc1)NC(=O)[C@H](CCC(=O)O)NC(=O)[C@H](C)NC(=O)[C@H](CC(C)C)NC(=O)[C@H](CCCNC(=N)N)NC(=O)[C@H](CCC(N)=O)NC(=O)[C@@H](NC(=O)[C@H](C)NC(=O)[C@@H]1CSSC[C@H](NC(=O)[C@@H](N)CCCCNC(=O)CC[C@H](NC(=O)CC[C@H](NC(=O)CCCCCCCCCCCCCCCCCCC(=O)O)C(=O)O)C(=O)O)C(=O)N[C@@H](CC(N)=O)C(=O)N[C@@H]([C@@H](C)O)C(=O)N[C@@H](C)C(=O)N[C@@H]([C@@H](C)O)C(=O)N1)[C@@H](C)O)C(=O)N[C@@H](CC(C)C)C(=O)N[C@@H](CO)C(=O)N[C@@H](CO)C(=O)N[C@H](C(=O)N[C@@H](CC(N)=O)C(=O)N[C@H](C(=O)NCC(=O)N1CCC[C@H]1C(=O)N[C@@H](CCC(=O)O)C(=O)N[C@H](C(=O)N[C@@H](Cc1ccc(O)cc1)C(N)=O)[C@@H](C)O)C(C)C)[C@@H](C)O
For B3, the “Ratio hCT/hAmylin binding” value in assay [1] is 7.8. Besides, the IC50 in assay [2] amounted to 9.29 nM.

B4: N^ε1-[(4S)-4-carboxy-4-[[(4S)-4-carboxy-4-(19-carboxynonadecanoylamino)butanoyl]amino]butanoyl]-[Glu14,Arg17,Pro21,Pro27,Pro34,Phe37]-h-amylin (peptide)
peptide: K([γGlu-γGlu-C20 diacid])CNTATCATQRLAEFLRHSSPNFGAIPSSTNVGPNTF-NH2
modifications: disulfide 2-7; N-terminus assumed
SMILES: CC[C@H](C)[C@H](NC(=O)[C@H](C)NC(=O)CNC(=O)[C@H](Cc1ccccc1)NC(=O)[C@H](CC(N)=O)NC(=O)[C@@H]1CCCN1C(=O)[C@H](CO)NC(=O)[C@H](CO)NC(=O)[C@H](Cc1c[nH]cn1)NC(=O)[C@H](CCCNC(=N)N)NC(=O)[C@H](CC(C)C)NC(=O)[C@H](Cc1ccccc1)NC(=O)[C@H](CCC(=O)O)NC(=O)[C@H](C)NC(=O)[C@H](CC(C)C)NC(=O)[C@H](CCCNC(=N)N)NC(=O)[C@H](CCC(N)=O)NC(=O)[C@@H](NC(=O)[C@H](C)NC(=O)[C@@H]1CSSC[C@H](NC(=O)[C@@H](N)CCCCNC(=O)CC[C@H](NC(=O)CC[C@H](NC(=O)CCCCCCCCCCCCCCCCCCC(=O)O)C(=O)O)C(=O)O)C(=O)N[C@@H](CC(N)=O)C(=O)N[C@@H]([C@@H](C)O)C(=O)N[C@@H](C)C(=O)N[C@@H]([C@@H](C)O)C(=O)N1)[C@@H](C)O)C(=O)N1CCC[C@H]1C(=O)N[C@@H](CO)C(=O)N[C@@H](CO)C(=O)N[C@H](C(=O)N[C@@H](CC(N)=O)C(=O)N[C@H](C(=O)NCC(=O)N1CCC[C@H]1C(=O)N[C@@H](CC(N)=O)C(=O)N[C@H](C(=O)N[C@@H](Cc1ccccc1)C(N)=O)[C@@H](C)O)C(C)C)[C@@H](C)O
Consider B4, for which, in assay [1], the “Ratio hCT/hAmylin binding” value stood at 18. For the same molecule, the IC50 in assay [2] was determined as 2.73 nM.

As to K([γGlu-γGlu-C20 diacid])CNTATCATQRLAEFLRHSSPNFGAIPSSTNVGPHTY-NH2 (disulfide 2-7 (inferred)), in assay [1], the “Ratio hCT/hAmylin binding” value came to 27.3. Besides, the half-maximal inhibitory concentration (IC50) in assay [2] stood at 10.3 nM.

As for K([γGlu-γGlu-C20 diacid])CNTATCATQRLAEFLRHSSPNFGAILSSTPVGPETY-NH2 (disulfide 2-7 (inferred)), in assay [1], the “Ratio hCT/hAmylin binding” value is 22.6. Moreover, the IC50 in assay [2] amounted to 1.56 nM.
